The values that follow come from paper PMC2577339 (Nucleic Acids Research, 2008).

The series concerns the molecule itself. The experiment in a line: glycerol gradient sedimentation + SEC.

B1: Topoisomerase IIα (enzyme)
chain: MEVSPLQPVNENMQVNKIKKNEDAKKRLSVERIYQKKTQLEHILLRPDTYIGSVELVTQQMWVYDEDVGINYREVTFVPGLYKIFDEILVNAADNKQRDPKMSCIRVTIDPENNLISIWNNGKGIPVVEHKVEKMYVPALIFGQLLTSSNYDDDEKKVTGGRNGYGAKLCNIFSTKFTVETASREYKKMFKQTWMDNMGRAGEMELKPFNGEDYTCITFQPDLSKFKMQSLDKDIVALMVRRAYDIAGSTKDVKVFLNGNKLPVKGFRSYVDMYLKDKLDETGNSLKVIHEQVNHRWEVCLTMSEKGFQQISFVNSIATSKGGRHVDYVADQIVTKLVDVVKKKNKGGVAVKAHQVKNHMWIFVNALIENPTFDSQTKENMTLQPKSFGSTCQLSEKFIKAAIGCGIVESILNWVKFKAQVQLNKKCSAVKHNRIKGIPKLDDANDAGGRNSTECTLILTEGDSAKTLAVSGLGVVGRDKYGVFPLRGKILNVREASHKQIMENAEINNIIKIVGLQYKKNYEDEDSLKTLRYGKIMIMTDQDQDGSHIKGLLINFIHHNWPSLLRHRFLEEFITPIVKVSKNKQEMAFYSLPEFEEWKSSTPNHKKWKVKYYKGLGTSTSKEAKEYFADMKRHRIQFKYSGPEDDAAISLAFSKKQIDDRKEWLTNFMEDRRQRKLLGLPEDYLYGQTTTYLTYNDFINKELILFSNSDNERSIPSMVDGLKPGQRKVLFTCFKRNDKREVKVAQLAGSVAEMSSYHHGEMSLMMTIINLAQNFVGSNNLNLLQPIGQFGTRLHGGKDSASPRYIFTMLSSLARLLFPPKDDHTLKFLYDDNQRVEPEWYIPIIPMVLINGAEGIGTGWSCKIPNFDVREIVNNIRRLMDGEEPLPMLPSYKNFKGTIEELAPNQYVISGEVAILNSTTIEISELPVRTWTQTYKEQVLEPMLNGTEKTPPLITDYREYHTDTTVKFVVKMTEEKLAEAERVGLHKVFKLQTSLTCNSMVLFDHVGCLKKYDTVLDILRDFFELRLKYYGLRKEWLLGMLGAESAKLNNQARFILEKIDGKIIIENKPKKELIKVLIQRGYDSDPVKAWKEAQQKVPDEEENEESDNEKETEKSDSVTDSGPTFNYLLDMPLWYLTKEKKDELCRLRNEKEQELDTLKRKSPSDLWKEDLATFIEELEAVEAKEKQDEQVGLPGKGGKAKGKKTQMAEVLPSPRGQRVIPRITIEMKAEAEKKNKKKIKNENTEGSPQEDGVELEGLKQRLEKKQKREPGTKTKKQTTLAFKPIKKGKKRNPWSDSESDRSSDESNFDVPPRETEPRRAATKTKFTMDLDSDEDFSDFDEKTDDEDFVPSDASPPKTKTSPKLSNKELKPQKSVVSDLEADDVKGSVPLSSSPPATHFPDETEITNPVPKKNVTVKKTAAKSQSSTSTTGAKKRAAPKGTKRDPALNSGVSQKPDPAKTKNRRKRKPSTSDDSDSNFEKIVSKAVTSKKSKGESDDFHMDFDSAVAPRAKSVRAKKPIKYLEESDEDDLF
Consider B1, for which the stoichiometry N (in general, a count of units in the complex or per binding partner) came out at 2.
